According to patent US20260125477A1 (BEIJING MABWORKS BIOTECH, published 2026):
Values belong to the binder of their own block, whether it stands above or below them.

Assays:
[1] = target: T1, human PD-L1/B7-H1 protein, with His tag (human, UniProt Q9NZQ7 19-238); assay: SPR (Biacore T200), 6B5 captured on Protein A chip; response against concentration
T1 construct: Bought protein
Method: (§1) The anti-human B7-H3 antibodies were tested for their binding capability to B7 family proteins by SPR using Biacore T200 biosensor (Biacore, US) provided with a pre-fixed Protein A sensor chip.
(§2) The dissociation was monitored for 600 sec. The data was analyzed using Biacore 8k evaluation software version 3.0, to obtain the binding responses, and the protein concentration-binding response curves were plotted, to determine the cross-reaction of the anti-human B7-H3 antibodies to the B7 family proteins.

[2] = target: T2, human B7-2/CD86 protein, with His tag (human, UniProt P42081 26-247, limits assumed); assay: as above
T2 construct: Bought protein
T2 sequence (looked up): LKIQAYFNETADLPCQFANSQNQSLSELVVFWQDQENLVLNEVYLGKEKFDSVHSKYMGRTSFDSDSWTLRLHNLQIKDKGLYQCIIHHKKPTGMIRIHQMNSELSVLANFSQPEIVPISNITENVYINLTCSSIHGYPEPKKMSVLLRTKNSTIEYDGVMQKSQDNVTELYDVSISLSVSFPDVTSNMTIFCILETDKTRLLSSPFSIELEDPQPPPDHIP
Method: as §1, §2

[3] = target: T3, human B7-H4 protein, with His tag (MALS verified) (human, UniProt Q7Z7D3 29-258, limits assumed); assay: as above
T3 construct: Bought protein
T3 sequence (looked up): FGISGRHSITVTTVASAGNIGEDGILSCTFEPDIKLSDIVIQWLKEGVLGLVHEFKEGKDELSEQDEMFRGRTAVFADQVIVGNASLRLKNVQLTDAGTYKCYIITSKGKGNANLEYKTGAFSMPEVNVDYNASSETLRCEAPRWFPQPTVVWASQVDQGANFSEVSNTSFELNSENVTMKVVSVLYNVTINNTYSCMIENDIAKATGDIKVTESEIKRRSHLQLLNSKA
Method: as §1, §2

[4] = target: T4, human B7-H7/HHLA2 protein, with His tag (MALS verified) (human, UniProt Q9UM44 23-344, limits assumed); assay: as above
T4 construct: Bought protein
T4 sequence (looked up): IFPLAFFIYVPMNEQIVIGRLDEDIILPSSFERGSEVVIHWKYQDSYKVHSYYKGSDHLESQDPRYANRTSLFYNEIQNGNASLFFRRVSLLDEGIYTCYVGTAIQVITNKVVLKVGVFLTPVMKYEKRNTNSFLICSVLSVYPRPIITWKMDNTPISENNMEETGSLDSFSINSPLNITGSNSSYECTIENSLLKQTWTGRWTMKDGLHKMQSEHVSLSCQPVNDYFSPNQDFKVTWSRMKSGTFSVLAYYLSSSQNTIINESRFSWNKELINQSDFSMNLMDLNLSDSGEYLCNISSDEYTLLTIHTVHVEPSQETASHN
Method: as §1, §2

[5] = target: T5, human B7-H2/ICOSLG protein, with His tag (human, UniProt O75144 19-258, limits assumed); assay: as above
T5 construct: Bought protein
T5 sequence (looked up): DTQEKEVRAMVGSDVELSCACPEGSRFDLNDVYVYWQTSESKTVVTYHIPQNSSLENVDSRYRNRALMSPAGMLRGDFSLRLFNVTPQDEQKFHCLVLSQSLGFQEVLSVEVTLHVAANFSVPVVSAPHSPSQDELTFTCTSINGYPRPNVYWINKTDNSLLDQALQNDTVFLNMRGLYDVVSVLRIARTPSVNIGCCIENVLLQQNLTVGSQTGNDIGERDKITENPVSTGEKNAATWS
Method: as §1, §2

[6] = target: T6, recombinant human CD80 protein (human B7-1/CD80 protein, with His tag) (human, UniProt P33681 35-242); assay: as above
T6 construct: Bought protein
T6 sequence (looked up): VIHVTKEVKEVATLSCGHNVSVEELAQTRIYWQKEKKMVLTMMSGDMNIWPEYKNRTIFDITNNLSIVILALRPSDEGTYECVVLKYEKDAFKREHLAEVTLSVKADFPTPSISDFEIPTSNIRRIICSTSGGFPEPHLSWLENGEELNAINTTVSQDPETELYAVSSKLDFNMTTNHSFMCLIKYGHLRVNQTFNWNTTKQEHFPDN
Method: as §1, §2

[7] = target: T7, human B7-H5/Gi24/VISTA protein, with His tag (MALS verified) (human, UniProt Q9H7M9 33-194); assay: as above
T7 construct: Bought protein
T7 sequence (looked up): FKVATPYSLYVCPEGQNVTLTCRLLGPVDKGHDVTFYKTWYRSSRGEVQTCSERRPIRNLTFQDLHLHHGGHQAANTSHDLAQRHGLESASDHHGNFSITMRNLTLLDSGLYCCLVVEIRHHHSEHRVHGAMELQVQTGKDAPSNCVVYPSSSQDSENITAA
Method: as §1, §2

[8] = target: T1, human PD-L1/B7-H1 protein, with His tag; assay: SPR (Biacore T200), antibody captured on Protein A chip
Method: as §1, §2

[9] = target: T4, human B7-H7/HHLA2 protein, with His tag …; assay: as above
Method: as §1, §2

[10] = target: T6, recombinant human CD80 protein (human …); assay: as above
Method: as §1, §2

[11] = target: T7, human B7-H5/Gi24/VISTA protein, with …; assay: as above
Method: as §1, §2

T1 sequence (Q9NZQ7 19-238 limits assumed): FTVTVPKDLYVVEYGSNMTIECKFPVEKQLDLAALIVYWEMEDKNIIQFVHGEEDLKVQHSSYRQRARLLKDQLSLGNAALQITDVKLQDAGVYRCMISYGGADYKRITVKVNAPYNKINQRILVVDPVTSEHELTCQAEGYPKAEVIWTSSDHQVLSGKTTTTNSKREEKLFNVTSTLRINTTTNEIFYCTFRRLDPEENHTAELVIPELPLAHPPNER

binding result [1]: no binding (tested: 200 nM)
binding result [2]: no binding (tested: 200 nM)
binding result [3]: no binding (tested: 200 nM)
binding result [4]: no binding (tested: 200 nM)
binding result [5]: no binding (tested: 200 nM)
binding result [6]: no binding (tested: 200 nM)
binding result [7]: no binding (tested: 200 nM)
B1: 6B5 (antibody, human IgG1, kappa, V domains shown)
VH: QVQLVESGPGLVKPSQTLSLTCTVSDGSISSGGYYWSWIRQHPGKGLEWIGYIYYSGGTYYSPSLKSRVTISVDTSKNQFSLKLTSVTAADTAVYYCARRAGYSSSFDSWGQGILVTVSS
VL: EIVLTQSPLSLPVTPGEPASISCRSSQSLLYSNGYTYLDWYLQKPGQSPQFLIYLGFNRASGVPDRFSGSGSGTDFTLKISRVEAEDVGVYYCMQGLQTPYTFGQGTKLEIKR
notes: also called 6B5-WT; Ab6B5

binding result [8]: no binding (tested: 200 nM)
binding result [9]: no binding (tested: 200 nM)
binding result [10]: no binding (tested: 200 nM)
binding result [11]: no binding (tested: 200 nM)
B2: 10F5 (antibody, human IgG1, kappa, V domains shown)
VH: QVQLVQSGAEVKKPGSSVKVSCKASGGTFSSQAISWVRQAPGQGLEWMGRIIPMLGIGDYAQSFQGRVTITADKSTSTAYLEVSSLGSEDTAVYYCAREGIAALGTNYYYGMDVWGQGTAVTVSS
VL: EIVMTQSPSSVSASVGDRVTITCRASQGISRWLAWYQQKPGKAPKLLIYVASSLQSGVPSRFSGSGSGTDFTLTISSLQPEDFATYYCQQANSFPFTFGPGTKVDIRR
notes: also called Ab10F5

binding result [8]: no binding (tested: 200 nM)
binding result [9]: no binding (tested: 200 nM)
binding result [10]: no binding (tested: 200 nM)
binding result [11]: no binding (tested: 200 nM)
B3: 10D7 (antibody, human IgG1, kappa, V domains shown)
VH: QVQLVQSGPGLVKPSETLSLTCTVSGGSISRSSYYWGWIRQPPGKGLEWIGNIFYAGSTYYNPSLKSRVTISVDTSKNQFSLKLSSVTAADTAVYYCARRITGTTGWFDPWGQGTLVTVSS
VL: DIQLTQSPSSLSASVGDRVTITCRASQGIRNDLGWYQQKPGKAPKLLIYAASTLQSGVPSRFSGSGSGTDFTLTISSLQPEDFATYYCLQDYNYPRTFGQGTKVEIKR
notes: also called 10D7-WT; Ab10D7
